From patent US20190048095A1 (BIO THERA SOLUTIONS, published 2019)

B1: Batansine-0806 (anti-TROP2 antibody BAT0806 conjugated with 3AA-MDC) (antibody)
light: DIQLTQSPSSLSASVGDRVSITCKASQDVSIAVAWYQQKPGKAPKLLIYSASYRYTGVPDRFSGSGSGTDFTLTISSLQPEDFAVYYCQQHYITPLTFGAGTKVEIKRTVAAPSVFIFPPSDEQLKSGTASVVCLLNNFYPREAKVQWKVDNALQSGNSQESVTEQDSKDSTYSLSSTLTLSKADYEKHKVYACEVTHQGLSSPVTKSFNRGEC
heavy: not shown
modifications: 3AA-MDC (batansine maytansinoid-linker) on cysteine thiols freed by partial TCEP reduction; positions not given
B2: Batansine-0807 (anti-TROP2 antibody BAT0807 conjugated with 3AA-MDC) (antibody, human IgG1, kappa)
light: B1 light
heavy: not shown
modifications: 3AA-MDC on site-mutated (engineered) cysteine(s); position not printed for this antibody
B3: BAT0806-CL2A-SN-38 (anti-TROP2 antibody BAT0806 conjugated with CL2A-SN-38) (antibody, human IgG1, kappa)
light: B1 light
heavy: not shown
modifications: CL2A-SN-38 on cysteine thiols freed by TCEP reduction; positions not given
B4: Batansine-0808 (anti-TROP2 antibody BAT0808 conjugated with 3AA-MDC) (antibody, human IgG1, kappa)
light: B1 light
heavy: not shown
modifications: 3AA-MDC on site-mutated (engineered) cysteine(s); position not printed for this antibody; glycan with fucose content of 0-5%

Key:
[1] = biological target: T1, TROP2 (TACSTD2), on TROP2 positive human tumor cell lines MDA-MB-468, A431 and N87 (human, UniProt P09758 27-323); test: cell-based or functional assay
T1 sequence (looked up): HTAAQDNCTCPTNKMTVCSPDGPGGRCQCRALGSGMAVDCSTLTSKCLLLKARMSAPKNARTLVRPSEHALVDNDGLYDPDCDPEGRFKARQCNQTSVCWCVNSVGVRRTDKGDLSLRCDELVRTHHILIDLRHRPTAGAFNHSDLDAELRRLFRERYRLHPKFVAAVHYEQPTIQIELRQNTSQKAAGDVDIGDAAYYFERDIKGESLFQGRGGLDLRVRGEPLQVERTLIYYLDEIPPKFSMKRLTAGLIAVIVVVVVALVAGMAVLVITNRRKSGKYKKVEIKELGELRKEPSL

[2] = biological target: T1, TROP2 (TACSTD2), on TROP2 positive …; test: cell-based or functional assay; remark: listed apart in the source

Row | Binder | EC50 (nM), synergistic ADCC, A431 with PBMC (PBMC cell:target cell 10:1) [1] | EC50, proliferation inhibition of A431 cells (CCK8, 72 h) [2] | EC50, proliferation inhibition of MDA-MB-468 cells (CCK8, 72 h) [2] | EC50, proliferation inhibition of N87 cells (CCK8, 72 h) [2] | EC50 (nM), cell proliferation, A431 [1] | EC50 (nM), cell proliferation, MDA-MB-468 [1] | EC50 (nM), cell proliferation, N87 [1] | EC50 (nM), synergistic ADCC, A431 with PBMC (PBMC cell:target cell 5:1) [1]
1 | B1 | 0.006 nM | 0.53 nM | 3.21 nM | 0.34 nM | – | – | – | –
2 | B2 | 0.011 nM | 1.73 nM | 2.89 nM | 0.77 nM | – | – | – | –
3 | B3 | – | – | – | – | 1.26 nM | 1.84 nM | 1.84 nM | 0.143 nM
4 | B4 | 0.001 nM | 1.53 nM | 5.61 nM | 1.47 nM | 2.89 nM | 1.95 nM | 0.56 nM | –
